The values that follow are results of earlier work, collected in article PMC6757120.

This series deals with VEGF-A165 (Homo sapiens) (UniProt P15692).
Chain of UniProt P15692 (P15692 whole entry): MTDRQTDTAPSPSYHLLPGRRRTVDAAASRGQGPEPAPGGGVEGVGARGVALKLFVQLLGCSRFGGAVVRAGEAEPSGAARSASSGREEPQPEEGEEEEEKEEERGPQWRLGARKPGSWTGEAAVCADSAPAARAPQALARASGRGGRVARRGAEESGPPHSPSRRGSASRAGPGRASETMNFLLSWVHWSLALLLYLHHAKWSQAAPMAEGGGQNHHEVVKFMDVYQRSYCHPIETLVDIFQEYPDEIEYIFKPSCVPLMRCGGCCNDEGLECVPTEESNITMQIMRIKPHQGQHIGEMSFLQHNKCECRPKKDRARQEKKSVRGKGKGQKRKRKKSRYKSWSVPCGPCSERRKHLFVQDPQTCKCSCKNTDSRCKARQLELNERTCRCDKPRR

On to NRP1 (from UniProt O14786), for which the equilibrium dissociation constant (Kd) (usually the free concentration of one partner at which half of the binding sites on the other are occupied at equilibrium, for simple one-to-one binding) is 3 nM.
